B1: N405Q (protein)
chain: GFGDVGALESLRGNADLAYILSMEPCGHCLIINNVNFCRESGLRTRTGSNIDCEKLRRRFSSLHFMVEVKGDLTAKKMVLALLELARQDHGALDCCVVVILSHGCQASHLQFPGAVYGTDGCPVSVEKIVNIFNGTSCPSLGGKPKLFFIQACGGEQKDHGFEVASTSPEDESPGSNPEPDATPFQEGLRTFDQLDAISSLPTPSDIFVSYSTFPGFVSWRDPKSGSWYVETLDDIFEQWAHSEDLQSLLLRVANAVSVKGIYKQMPGCFQFLRKKLFFKTSASRA
B2: D330G (protein)
chain: GFGDVGALESLRGNADLAYILSMEPCGHCLIINNVNFCRESGLRTRTGSNIDCEKLRRRFSSLHFMVEVKGDLTAKKMVLALLELARQDHGALDCCVVVILSHGCQASHLQFPGAVYGTDGCPVSVEKIVNIFNGTSCPSLGGKPKLFFIQACGGEQKDHGFEVASTSPEDESPGSNPEPDATPFQEGLRTFDQLGAISSLPTPSDIFVSYSTFPGFVSWRDPKSGSWYVETLDDIFEQWAHSEDLQSLLLRVANAVSVKGIYKQMPGCFNFLRKKLFFKTSASRA
B3: S196A (protein)
chain: GFGDVGALESLRGNADLAYILSMEPCGHCLIINNVNFCRESGLRTRTGSNIDCEKLRRRFSALHFMVEVKGDLTAKKMVLALLELARQDHGALDCCVVVILSHGCQASHLQFPGAVYGTDGCPVSVEKIVNIFNGTSCPSLGGKPKLFFIQACGGEQKDHGFEVASTSPEDESPGSNPEPDATPFQEGLRTFDQLDAISSLPTPSDIFVSYSTFPGFVSWRDPKSGSWYVETLDDIFEQWAHSEDLQSLLLRVANAVSVKGIYKQMPGCFNFLRKKLFFKTSASRA
B4: D330A-S144D (protein)
chain: GFGDVGALEDLRGNADLAYILSMEPCGHCLIINNVNFCRESGLRTRTGSNIDCEKLRRRFSSLHFMVEVKGDLTAKKMVLALLELARQDHGALDCCVVVILSHGCQASHLQFPGAVYGTDGCPVSVEKIVNIFNGTSCPSLGGKPKLFFIQACGGEQKDHGFEVASTSPEDESPGSNPEPDATPFQEGLRTFDQLAAISSLPTPSDIFVSYSTFPGFVSWRDPKSGSWYVETLDDIFEQWAHSEDLQSLLLRVANAVSVKGIYKQMPGCFNFLRKKLFFKTSASRA
B5: D330S (protein)
chain: GFGDVGALESLRGNADLAYILSMEPCGHCLIINNVNFCRESGLRTRTGSNIDCEKLRRRFSSLHFMVEVKGDLTAKKMVLALLELARQDHGALDCCVVVILSHGCQASHLQFPGAVYGTDGCPVSVEKIVNIFNGTSCPSLGGKPKLFFIQACGGEQKDHGFEVASTSPEDESPGSNPEPDATPFQEGLRTFDQLSAISSLPTPSDIFVSYSTFPGFVSWRDPKSGSWYVETLDDIFEQWAHSEDLQSLLLRVANAVSVKGIYKQMPGCFNFLRKKLFFKTSASRA
B6: S195A (protein)
chain: GFGDVGALESLRGNADLAYILSMEPCGHCLIINNVNFCRESGLRTRTGSNIDCEKLRRRFASLHFMVEVKGDLTAKKMVLALLELARQDHGALDCCVVVILSHGCQASHLQFPGAVYGTDGCPVSVEKIVNIFNGTSCPSLGGKPKLFFIQACGGEQKDHGFEVASTSPEDESPGSNPEPDATPFQEGLRTFDQLDAISSLPTPSDIFVSYSTFPGFVSWRDPKSGSWYVETLDDIFEQWAHSEDLQSLLLRVANAVSVKGIYKQMPGCFNFLRKKLFFKTSASRA
B7: S183A (protein)
chain: GFGDVGALESLRGNADLAYILSMEPCGHCLIINNVNFCRESGLRTRTGANIDCEKLRRRFSSLHFMVEVKGDLTAKKMVLALLELARQDHGALDCCVVVILSHGCQASHLQFPGAVYGTDGCPVSVEKIVNIFNGTSCPSLGGKPKLFFIQACGGEQKDHGFEVASTSPEDESPGSNPEPDATPFQEGLRTFDQLDAISSLPTPSDIFVSYSTFPGFVSWRDPKSGSWYVETLDDIFEQWAHSEDLQSLLLRVANAVSVKGIYKQMPGCFNFLRKKLFFKTSASRA
B8: D330A-S144A (protein)
chain: GFGDVGALEALRGNADLAYILSMEPCGHCLIINNVNFCRESGLRTRTGSNIDCEKLRRRFSSLHFMVEVKGDLTAKKMVLALLELARQDHGALDCCVVVILSHGCQASHLQFPGAVYGTDGCPVSVEKIVNIFNGTSCPSLGGKPKLFFIQACGGEQKDHGFEVASTSPEDESPGSNPEPDATPFQEGLRTFDQLAAISSLPTPSDIFVSYSTFPGFVSWRDPKSGSWYVETLDDIFEQWAHSEDLQSLLLRVANAVSVKGIYKQMPGCFNFLRKKLFFKTSASRA
B9: D330V (protein)
chain: GFGDVGALESLRGNADLAYILSMEPCGHCLIINNVNFCRESGLRTRTGSNIDCEKLRRRFSSLHFMVEVKGDLTAKKMVLALLELARQDHGALDCCVVVILSHGCQASHLQFPGAVYGTDGCPVSVEKIVNIFNGTSCPSLGGKPKLFFIQACGGEQKDHGFEVASTSPEDESPGSNPEPDATPFQEGLRTFDQLVAISSLPTPSDIFVSYSTFPGFVSWRDPKSGSWYVETLDDIFEQWAHSEDLQSLLLRVANAVSVKGIYKQMPGCFNFLRKKLFFKTSASRA
B10: L329E (protein)
chain: GFGDVGALESLRGNADLAYILSMEPCGHCLIINNVNFCRESGLRTRTGSNIDCEKLRRRFSSLHFMVEVKGDLTAKKMVLALLELARQDHGALDCCVVVILSHGCQASHLQFPGAVYGTDGCPVSVEKIVNIFNGTSCPSLGGKPKLFFIQACGGEQKDHGFEVASTSPEDESPGSNPEPDATPFQEGLRTFDQEDAISSLPTPSDIFVSYSTFPGFVSWRDPKSGSWYVETLDDIFEQWAHSEDLQSLLLRVANAVSVKGIYKQMPGCFNFLRKKLFFKTSASRA
B11: D330N (protein)
chain: GFGDVGALESLRGNADLAYILSMEPCGHCLIINNVNFCRESGLRTRTGSNIDCEKLRRRFSSLHFMVEVKGDLTAKKMVLALLELARQDHGALDCCVVVILSHGCQASHLQFPGAVYGTDGCPVSVEKIVNIFNGTSCPSLGGKPKLFFIQACGGEQKDHGFEVASTSPEDESPGSNPEPDATPFQEGLRTFDQLNAISSLPTPSDIFVSYSTFPGFVSWRDPKSGSWYVETLDDIFEQWAHSEDLQSLLLRVANAVSVKGIYKQMPGCFNFLRKKLFFKTSASRA
B12: D330A-N405Q (protein)
chain: GFGDVGALESLRGNADLAYILSMEPCGHCLIINNVNFCRESGLRTRTGSNIDCEKLRRRFSSLHFMVEVKGDLTAKKMVLALLELARQDHGALDCCVVVILSHGCQASHLQFPGAVYGTDGCPVSVEKIVNIFNGTSCPSLGGKPKLFFIQACGGEQKDHGFEVASTSPEDESPGSNPEPDATPFQEGLRTFDQLAAISSLPTPSDIFVSYSTFPGFVSWRDPKSGSWYVETLDDIFEQWAHSEDLQSLLLRVANAVSVKGIYKQMPGCFQFLRKKLFFKTSASRA
B13: T317A (protein)
chain: GFGDVGALESLRGNADLAYILSMEPCGHCLIINNVNFCRESGLRTRTGSNIDCEKLRRRFSSLHFMVEVKGDLTAKKMVLALLELARQDHGALDCCVVVILSHGCQASHLQFPGAVYGTDGCPVSVEKIVNIFNGTSCPSLGGKPKLFFIQACGGEQKDHGFEVASTSPEDESPGSNPEPDAAPFQEGLRTFDQLDAISSLPTPSDIFVSYSTFPGFVSWRDPKSGSWYVETLDDIFEQWAHSEDLQSLLLRVANAVSVKGIYKQMPGCFNFLRKKLFFKTSASRA

Test system: chimeric Caspase-9 polypeptide
Test: Caspase-9 mutant classes and basal activity (Table 5)
Format: cell-based
Details: Caspase-9 mutant class; for Basal Activity: basal (ligand-independent) signaling compared with unmodified chimeric Caspase-9; for IC50: ligand IC50 compared with unmodified chimeric Caspase-9
Excerpt: Even though homo-dimerization of wild-type initiator Caspase-9 is energetically unfavorable, making them mostly monomers in solution [14-16], the low-level inherent basal activity of unprocessed Caspase-9 [15, 17] is enhanced in the presence of the Apaf-1-based “apoptosome”, its natural allosteric regulator [6]. Moreover, supra-physiological expression levels and/or co-localization could lead to proximity-driven dimerization, further enhancing basal activation. The modified cells of the present application may comprise nucleic acids coding for a chimeric Caspase-9 polypeptide having lower basal signaling activity. Polynucleotides comprising Caspase-9 mutants with lower basal signaling may be expressed in the modified cells used for cell therapy herein. In these examples, the modified cells may include a safety switch, comprising a polynucleotide encoding a lower basal signaling chimeric Caspase-9 polypeptide. In the event of an adverse event following administration of the modified cells comprising the chimeric signaling polypeptides or chimeric antigen receptors herein, Caspase-9 activity may be induced by administering the dimerizer to the patient, thus inducing apoptosis and clearance of some, or all of the modified cells. In some examples, the amount of dimerizer administered may be determined as an amount designed to remove the highest amount, at least 80% or 90% of the modified cells. In other examples, the amount of dimerizer administered may be determined as an amount designed to remove only a portion of the modified cells, in order to alleviate negative symptoms or conditions, while leaving a sufficient amount of therapeutic modified cells in the patient, in order to continue therapy. Methods for using chimeric Caspase-9 polypeptides to induce apoptosis are discussed in PCT Application Number PCT/US2011/037381 by Malcolm K. Brenner et al., titled Methods for Inducing Selective Apoptosis, filed May 20, 2011, and in U.S. patent application Ser. No. 13/112,739 by Malcolm K. Brenner et al., titled Methods for Inducing Selective Apoptosis, filed May 20, 2011, issued Jul. 28, 2015 as U.S. Pat. No. 9,089,520. Chimeric caspase polypeptides having modified basal activity are discussed in PCT Application Serial Number PCT/US2014/022004 by David Spencer et al., titled Modified Caspase Polypeptides and Uses Thereof, filed Mar. 7, 2014, published Oct. 9, 2014 as WO2014/164348, and in U.S. patent application Ser. No. 13/792,135 by David Spencer et al., titled Modified Caspase Polypeptides and Uses Thereof, filed Mar. 7, 2014; and in U.S. patent application Ser. No. 14/640,553 by Spencer et al., filed Mar. 6, 2015. Methods for inducing partial apoptosis of the therapeutic modified cells are discussed in PCT Application Number PCT/US14/040964 by Kevin Slawin et al., titled Methods for Inducing Partial Apoptosis Using Caspase Polypeptides, filed Jun. 4, 2014, published Dec. 11, 2014 as WO2014/197638, and in U.S. patent application Ser. No. 14/296,404 by Kevin Slawin et al., titled Methods for Inducing Partial Apoptosis Using Caspase Polypeptides, filed Jun. 4, 2014. These patent applications and publications are all incorporated by reference herein in their entireties.

chimeric Caspase-9 polypeptide, sequence (P62942 2-108 F37V limits assumed): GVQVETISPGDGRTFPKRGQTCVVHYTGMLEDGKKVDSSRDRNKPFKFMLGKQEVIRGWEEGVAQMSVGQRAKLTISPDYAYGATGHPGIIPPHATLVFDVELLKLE

Molecule	Basal Activity	IC50
B1	Decreased	higher IC50
B2	Decreased	higher IC50
B3	Decreased	higher IC50
B4	Decreased	higher IC50
B5	Decreased	higher IC50
B6	Decreased	higher IC50
B7	Decreased	higher IC50
B8	Decreased	higher IC50
B9	Decreased	higher IC50
B10	Decreased	higher IC50
B11	Decreased	higher IC50
B12	Decreased	higher IC50
B13	Decreased	higher IC50

Reference: patent publication US20210147507A1, “METHODS TO AUGMENT OR ALTER SIGNAL TRANSDUCTION” (Bellicum Pharmaceuticals, Inc., priority 2017, published 2021)
